# Experimental data published in paper PMC314469, “Protein Interaction Networks by Proteome Peptide Scanning” (PLoS Biology, 2004).
# T1: Boi2 SH3 (BOI2_YEAST), P39969
# T1 chain: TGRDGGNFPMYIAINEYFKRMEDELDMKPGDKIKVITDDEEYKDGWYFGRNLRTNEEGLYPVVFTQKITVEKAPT
# T2: Boi1 SH3 (BOI1_YEAST), P38041
# T2 chain: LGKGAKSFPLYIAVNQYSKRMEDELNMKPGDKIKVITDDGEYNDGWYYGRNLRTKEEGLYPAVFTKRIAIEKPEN
# T3: Myo5 SH3 (MYO5_YEAST), Q04439
# T3 chain: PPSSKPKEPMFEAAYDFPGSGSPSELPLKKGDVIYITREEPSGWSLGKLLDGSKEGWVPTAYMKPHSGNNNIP
# T4: Yfr024 SH3 (LSB3_YEAST), P43603
# T4 chain: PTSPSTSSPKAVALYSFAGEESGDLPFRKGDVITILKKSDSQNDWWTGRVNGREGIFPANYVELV
# T5: Rvs167 SH3 (RV167_YEAST), P39743
# T5 chain: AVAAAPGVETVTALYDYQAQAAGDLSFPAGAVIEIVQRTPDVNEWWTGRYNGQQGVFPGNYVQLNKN
# T6: Yhr016c SH3 (YSC84_YEAST), P32793
# T6 chain: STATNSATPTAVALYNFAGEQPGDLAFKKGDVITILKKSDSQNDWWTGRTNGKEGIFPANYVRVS
# Key:
# Assay in all cases: SPOT array
# [1] = target: T1, Boi2 SH3 (BOI2_YEAST), P39969
# [2] = target: T2, Boi1 SH3 (BOI1_YEAST), P38041
# [3] = target: T3, Myo5 SH3 (MYO5_YEAST), Q04439
# [4] = target: T4, Yfr024 SH3 (LSB3_YEAST), P43603
# [5] = target: T5, Rvs167 SH3 (RV167_YEAST), P39743
# [6] = target: T6, Yhr016c SH3 (YSC84_YEAST), P32793
# [7] = target: Sho1 SH3 (SHO1_YEAST), P40073
# Chain of Sho1 SH3 (SHO1_YEAST), P40073 (P40073 295-366): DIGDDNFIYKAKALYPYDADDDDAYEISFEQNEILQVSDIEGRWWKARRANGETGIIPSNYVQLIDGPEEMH
"normalised SPOT signal, Boehringer light units (BLU); mean over the file's lines of this peptide [1]","normalised SPOT signal, Boehringer light units (BLU); mean over the file's lines of this peptide [2]","normalised SPOT signal, Boehringer light units (BLU); mean over the file's lines of this peptide [3]","normalised SPOT signal, Boehringer light units (BLU); mean over the file's lines of this peptide [4]","normalised SPOT signal, Boehringer light units (BLU); mean over the file's lines of this peptide [5]","normalised SPOT signal, Boehringer light units (BLU); mean over the file's lines of this peptide [6]","normalised SPOT signal, Boehringer light units (BLU); mean over the file's lines of this peptide [7]",Binder
40.3,2560,956,12.8,70.6,9.7,88.9,QHKPKVKPSKPEAK [YHL007C 236-249]
0,142,111,66.9,79.8,33.6,36.4,QFALKNTPITPGSS [YGR061C 462-475]
16.6,88.1,197,109,20.6,18.1,36.1,QSEEKEKPKGPMAV [YIL122W 8-21]
27.9,49.4,216,11.2,59.4,16.4,27.1,QLQEKLSPDLPDEE [YGL173C 401-414]
122,37.4,208,178,89,42.2,44.4,QSINRSIPSAPYGA [YBL081W 84-97]
13.7,56.1,249,1720,41.5,28.6,60100,QIVNKPLPPLPVAG [YJL128C 89-102]
17.1,213,186,134,9.1,63.7,67,QTVIKTHPRIPKSE [YMR211W 94-107]
0,64.6,260,86.7,22.1,8.3,37.6,QNGLRFNPDVPKLW [YDR449C 169-182]
325,273,518,2780,716,316,323,QLINRFMPHFPSSP [YHR036W 42-55]
31.3,34.7,171,74.9,37.5,146,44.3,QGSNKYSPSSPLTT [YDR122W 964-977]
12,104,218,105,52,19.3,37.3,QRLDRDKPHEPNGY [YDL076C 274-287]
13.7,19.4,156,48.8,48.2,19.4,78.5,QPPDRNLPSHPSSN [YGR143W 154-167]
11.1,102,607,49.6,30.1,37.1,63.2,QATGRRGPAPPPPP [YOR181W 378-391]
17.8,45.3,62.9,6.6,56.5,28.7,37.7,QTGSKTVPQAPQAP [YLR095C 762-775]
5.9,80.3,122,64.3,90.1,65.4,9780,QSKTKPLPVEPASP [YCR030C 484-497]
22.2,-0,118,700,57,118,11.6,QELPRAIPVMPFVD [YJL020C 471-484]
